Assays:
β-arrestin2-GFP = β-arrestin2-GFP recruitment to the membrane by confocal microscopy; format: cell-based; conditions: isoproterenol; co-expressed mutant protein
Method: Confocal Microscopy—Confocal microscopy was performed as previously described. […] Cells were split into 35 mm^2 dishes with glass bottoms for observation using a Zeiss LSM-510 confocal microscope. […] For analyses of the HEAT domain, HEK 293 cells were transfected with the plasmids containing cDNAs encoding either the β2AR-YFP (2 μg) or β2AR-YFP (2 μg) and HEAT domain (4 μg). Cells were plated onto glass bottom dishes for observation in the confocal microscope. […] Cells were permeablized with 0.1% Triton X-100 in phosphate-buffered saline for 20 min, incubated in 1% BSA in phosphate-buffered saline for 1 hr. Cells were washed with 1× phosphate-buffered saline and incubated with anti-HA or anti-FLAG monoclonal antibody (1:250) with 1% BSA in 1× phosphate-buffered saline for 1 hr. Cells were washed and incubated with goat anti-mouse IgG conjugated with Texas Red (1:500) (Molecular Probes) for 1 hr. Samples were visualized using single sequential line excitation filters at 488 and 568 nm and emission filter sets at 505-550 nm for GFP detection and 585 for Texas Red detection.
To exclude these possibilities cells were co-transfected with plasmids containing FLAG β2AR, β-arrestin2-GFP and either PI3Kγ or ΔPI3Kγ cDNAs, and were monitored for the recruitment of β-arrestin2-GFP using confocal microscopy. […] Marked redistribution of β-arrestin2-GFP to the membrane occurred within 2.5 minutes. […]

βARK1/PI3K interaction = target: T1, βARK1/PI3K interaction (Bos taurus, UniProt P21146); assay: βARK1 associated PI3K activity in HEK 293 cells co-transfected with HEAT or PI3KΔHEAT; format: cell-based
T1 construct: recognizes both full length βARK1 and the βARKct; expressed in transfected cells; host or cells: HEK 293
T1 sequence (P21146 1-689): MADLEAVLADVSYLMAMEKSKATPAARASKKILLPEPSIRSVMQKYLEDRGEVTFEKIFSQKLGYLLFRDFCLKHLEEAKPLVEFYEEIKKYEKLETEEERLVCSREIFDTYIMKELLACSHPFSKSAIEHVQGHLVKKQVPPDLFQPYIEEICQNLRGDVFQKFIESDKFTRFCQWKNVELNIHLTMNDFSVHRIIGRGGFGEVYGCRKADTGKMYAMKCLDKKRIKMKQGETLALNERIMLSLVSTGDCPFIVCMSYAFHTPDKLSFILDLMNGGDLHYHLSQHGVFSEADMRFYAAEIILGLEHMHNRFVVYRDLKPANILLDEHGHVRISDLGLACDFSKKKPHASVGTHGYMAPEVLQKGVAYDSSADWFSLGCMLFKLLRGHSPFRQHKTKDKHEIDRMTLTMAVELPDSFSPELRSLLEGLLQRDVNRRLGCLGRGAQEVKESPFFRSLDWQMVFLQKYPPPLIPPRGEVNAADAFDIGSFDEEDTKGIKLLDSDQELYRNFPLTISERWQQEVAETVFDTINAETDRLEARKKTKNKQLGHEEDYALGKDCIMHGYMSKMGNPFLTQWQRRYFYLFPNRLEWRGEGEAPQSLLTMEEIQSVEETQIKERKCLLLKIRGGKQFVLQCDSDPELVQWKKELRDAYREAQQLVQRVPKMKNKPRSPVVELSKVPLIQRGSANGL
Method: The present inventors determined that overexpression of the 197 amino acid HEAT domain of PI3K competed for endogenous PI3K binding to βARK1 in living cells. HEK 293 cells were co-transfected with plasmids containing the βARK1 cDNA (2 μg) and increasing concentrations of the HEAT domain cDNA (ranging from 0 to 6 μg). […] The maximal reduction of βARK1 associated PI3K activity occurred when cells were co-transfected with 4 μg of HEAT cDNA (FIG. 9B). Summary results of n=5 experiments. *, p<0.0005. The data was normalized to βARK1 associated PI3K activity in cells transfected with βARK1 only. Furthermore, FLAG tagged HEAT protein co-immunoprecipitated with βARK1 monoclonal antibodies in the co-transfected HEK 293 cells.
The absence of the HEAT domain in an otherwise intact PI3K molecule affected the association of βARK1 with endogenous PI3K in cells. HEK 293 cells were co-transfected with plasmids containing cDNAs for βARK1 (2 μg), βARK1 plus HEAT (4 μg), and βARK1 plus PI3KΔHEAT (4 μg). Cell lysates were immunoprecipitated with a βARK1 monoclonal antibody and assayed for the associated PI3K activity. Expression of PI3KΔHEAT had no effect on the endogenous βARK1/PI3K interaction, whereas overexpression of HEAT abolished this interaction (FIGS. 9C and 9D). […] The data was normalized to βARK1 associated PI3K activity in cells transfected with βARK1 only.
Cytosolic and membrane fractions were prepared and analyzed for βARK1 associated PI3K activity. […] Membrane fractions were prepared from the HEK293 cells co-transfected with the βARK1 (2 μg), βARK1 and HEAT domain (4 μg) containing plasmids.

B1: HEAT: 197 amino acid HEAT domain of PI3Kγ, FLAG epitope-tagged (SEQ ID NO: 2), overexpressed in cells (protein, listed as Homo sapiens)
chain: MDYKDDDDKHPIALPKHQPTPDDRVRAEMPNQLRKQLEAIIATDTAEDKELLWHFRYESLKHPKAYPKLFSSVKWGQQEIVAKTYQLLARREVWDQSALDVGLTMQLLDCNFSDENVRAIAVQKLESLEDDDVLHYLLQLVQAVKFEPYHDSALARFLLKRGLRNKRIGHFLFWFLRSEIAQSRHYQQRFAVILEAYLRGCGTA
modifications: FLAG tag
**Q.** Which “recruitment of β-arrestin2-GFP to the receptor/membrane after agonist” value (β-arrestin2-GFP) does the source give for B1 here?
**A.** The value was “did not affect”.

**Q.** And the “endogenous βARK1/PI3K interaction” value (βARK1/PI3K interaction; 4 μg cDNA co-transfected with βARK1)?
**A.** The value was “abolished”.

**Q.** What about the “agonist-induced translocation of PI3K to the membrane” value (βARK1/PI3K interaction; 10 μM isoproterenol 2 min, HEAT 4 μg) of the same molecule?
**A.** The value was “effectively abolished”.

**Q.** What about the “βARK1 associated PI3K activity with increasing HEAT cDNA” value (βARK1/PI3K interaction; HEAT cDNA 0 to 6 μg) of the same molecule?
**A.** Its value is “effectively competed away”.
